Where two headings read alike, the source gives them in different places.
Legend:
hPD-L2-Fc = target: T1, hPD-L2-Fc (human, UniProt Q9BQ51 20-219); assay: ELISA, plate coated with hPD-L2-Fc
T1 construct: Acrobiosystems PD2-H5251; also called human PD-L2 protein; not shown: Fc tag
T1 sequence (looked up): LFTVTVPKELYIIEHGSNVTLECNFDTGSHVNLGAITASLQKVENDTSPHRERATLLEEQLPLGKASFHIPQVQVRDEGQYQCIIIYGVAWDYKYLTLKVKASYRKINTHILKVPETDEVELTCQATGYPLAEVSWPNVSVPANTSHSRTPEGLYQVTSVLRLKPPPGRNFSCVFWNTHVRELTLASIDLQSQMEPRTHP
Protocol: Briefly, high-binding clear polystyrene 96 well plates (Nunc) were coated with 100 μl/well of a 0.5 μg/ml human PD-L1-Fc (Acrobiosystems, Cat #PD1-H5258) or 100 μl/well of a 1 μg/ml hPD-L2-Fc (Acrobiosystems, Cat #PD2-H5251), respectively, in high pH coating buffer (0.16% Na2CO3+0.3% NaHCO₃, pH 9.8) and incubated overnight at 4° C. Then the plates were washed once on an automatic plate washer using washing buffer (PBS+0.1% Tween 20 (Amresco)). 200 μl of blocking buffer (PBS+1% BSA+1% normal goat serum+0.05% Tween-20) was added to each well and incubated for 2 hours at room temp. Then add 100 μl 2 μg/ml purified PD-L1 antibodies with dilution buffer (PBS+1% BSA+1% normal goat serum+0.01% Tween-20) and incubate for 1 hour at RT. The plates were then washed 3 times with washing buffer. 100 μl/well of a solution of HRP conjugated goat anti-mouse IgG antibody (1:20000, Abcam) in dilution buffer was then added to each well of the plate. After that the ELISA plates were allowed to incubate for 60 min at RT then the plates were washed 3 times with 250 μl/well washing buffer. Finally, 100 μl/well of TMB was added to each well for 15 min and the reaction was terminated using 50 ul/well of 0.16 M/L sulfuric acid. The plates were read on a Thermo Multiscan FC at 450 nM (see FIG. 6G).

[1] = target: T2, wild type human PD-L1-Fc protein (SEQ ID NO: 107) (human); assay: ELISA on captured PD-L1-Fc, as in Example 18A
T2 construct: Extracellular human PD-L1 (amino acid 19-238) with Fc fragment of human IgG1, expressed in 293T cells and used as culture supernatant; also called WT PD-L1; wild-type PD-L1
T2 sequence (chain, as listed by the source limits assumed): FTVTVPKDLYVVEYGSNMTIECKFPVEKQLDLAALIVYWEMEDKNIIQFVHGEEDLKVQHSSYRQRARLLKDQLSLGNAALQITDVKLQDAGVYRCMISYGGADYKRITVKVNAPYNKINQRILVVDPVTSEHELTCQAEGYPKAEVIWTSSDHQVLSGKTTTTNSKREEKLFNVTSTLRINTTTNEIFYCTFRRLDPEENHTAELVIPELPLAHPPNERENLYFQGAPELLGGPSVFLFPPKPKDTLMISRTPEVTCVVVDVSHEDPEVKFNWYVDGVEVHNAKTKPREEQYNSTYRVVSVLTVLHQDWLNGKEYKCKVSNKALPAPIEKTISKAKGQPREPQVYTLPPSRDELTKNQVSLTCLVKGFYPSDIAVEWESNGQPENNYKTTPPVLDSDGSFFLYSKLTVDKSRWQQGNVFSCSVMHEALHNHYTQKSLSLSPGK

[2] = target: T3, human PD-L1-Fc mutant E58A (human); assay: ELISA on captured PD-L1-Fc, as in Example 18A
T3 construct: Position 58 counts on native human PD-L1 (NP_054862.1); also called E58A mutant
T3 sequence (chain, as listed by the source E58A E58A limits assumed): as the sequence (chain, as listed by the source limits assumed) above, with E40A counted along it

[3] = target: T4, human PD-L1 expressed on cells (human, UniProt Q9NZQ7 19-290); assay: FACS, IFN-gamma stimulated HCC827 cells
T4 construct: whole, on cells; also called hPD-L1 expressed on HCC827; hPD-L1 on MC38/hPD-L1 cells
T4 sequence (Q9NZQ7 19-290): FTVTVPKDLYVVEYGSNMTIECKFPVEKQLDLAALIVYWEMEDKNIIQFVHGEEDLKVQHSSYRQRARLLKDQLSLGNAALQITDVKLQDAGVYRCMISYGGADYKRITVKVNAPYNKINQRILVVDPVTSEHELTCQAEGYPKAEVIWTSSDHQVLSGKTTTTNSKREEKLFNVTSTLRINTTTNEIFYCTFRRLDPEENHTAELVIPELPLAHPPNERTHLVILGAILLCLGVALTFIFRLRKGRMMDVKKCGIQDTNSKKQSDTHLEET
Protocol: Log phase IFN-γ stimulated (500U/ml for 2 days) HCC827 cells were collected and resuspended in blocking buffer (5% BSA+PBS). 2×10\hat{ }5 cells were added to each tube and then washed once with PBS (1500 rpm, 5 mins, RT). The 100 μl/tube serial diluted PD-L1 antibodies purified from hybridoma supernatant in blocking buffer were added into corresponding tubes and were incubated at 4° C. for 1 hr. The cells were then washed twice with 1 ml PBS, followed by adding 100 μl/tube of 2nd antibody (1:400 anti-mIgG (H+L)-PE, Cell signaling) in blocking buffer. The cells were incubated at 4° C. for 1 hr and then washed twice with PBS, followed by resuspending cells in 150 μl PBS for each sample. The cells were then transferred into FACS tube and the bindings of the antibodies to the cells were detected using flow cytometry (BD Accuri C6) (see FIG. 5A).

[4] = target: T5, Recombinant Human PD-L1/CD274 Protein (hPD-L1-his) (human, UniProt Q9NZQ7 19-238); assay: ELISA, purified mouse antibody on coated hPD-L1-his
T5 construct: range 19-238; ACRO Biosystem PD1-H5229, made in HEK293; also called human PD-L1-his; hPD-L-his
T5 sequence (Q9NZQ7 other isoform, or with tags, fused parts or gaps limits assumed): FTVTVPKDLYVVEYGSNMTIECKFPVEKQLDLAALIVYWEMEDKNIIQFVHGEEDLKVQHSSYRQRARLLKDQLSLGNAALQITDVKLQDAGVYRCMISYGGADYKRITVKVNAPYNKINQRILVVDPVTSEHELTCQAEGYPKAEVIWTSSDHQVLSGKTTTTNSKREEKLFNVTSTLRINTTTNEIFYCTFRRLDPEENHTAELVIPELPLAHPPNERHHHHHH
Protocol: High-binding clear polystyrene 96 well plates (Nunc) were coated with 100 μl/well of a 0.5 μg/ml hPD-L1-his in high pH coating buffer and incubated overnight 4° C. Then plates were washed once on an automatic plate washer using washing buffer (PBS+0.1% Tween 20 (Sigma)). 200 μl of blocking buffer (PBS+1% BSA+1% normal goat serum+0.05% Tween-20) was added to each well and incubated 2 hours at room temp. Then add serially diluted purified antibodies with dilution buffer (PBS+1% BSA+1% normal goat serum+0.01% Tween-20) and incubate for 1 hour at RT. The plates were then washed 3 times using the method described above. 100 μl/well of a solution of HRP conjugated goat anti-mouse Fc antibody (Abcam) in dilution buffer was then added to each well of the plate. After that the ELISA plates were allowed to incubate for 60 min at RT then plates were washed 3 times with 250 μl/well washing buffer. Finally, 100 μl/well of TMB was added to each well and was terminated using 0.64M H₂SO₄. The plates were read on a Thermo Multiscan FC at 450 nM (see FIG. 3).

[5] = target: T6, Recombinant Mouse PD-L1/CD274 Protein (mPD-L1-his) (mouse, UniProt Q9EP73 19-238); assay: ELISA, 20 ug/ml antibody on coated mouse PD-L1 (his-tagged per text, mPD-L1-Fc per sheet title)
T6 construct: range 19-238; ACRO Biosystem PD1-M5220; also called mouse PD-L1-his
T6 sequence (Q9EP73 other isoform, or with tags, fused parts or gaps limits assumed): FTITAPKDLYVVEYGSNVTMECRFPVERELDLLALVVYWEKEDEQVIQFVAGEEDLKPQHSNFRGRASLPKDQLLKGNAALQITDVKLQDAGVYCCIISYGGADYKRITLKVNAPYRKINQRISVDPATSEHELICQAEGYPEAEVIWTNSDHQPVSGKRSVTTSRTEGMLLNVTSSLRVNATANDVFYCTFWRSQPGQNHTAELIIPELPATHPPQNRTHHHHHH
Protocol: High-binding clear polystyrene 96 well plates (Nunc) were coated with 100 μl/well of 1 μg/ml mouse PD-L1-his in high pH coating buffer and incubated overnight at 4° C. Then plates were washed once on an automatic plate washer using washing buffer (PBS+0.1% Tween 20 (Sigma)). 200 μl of blocking buffer (PBS+1% BSA+1% normal goat serum+0.05% Tween-20) was added to each well and incubated for 2 hours at room temp. Then add 20 μg/ml purified hybridoma mouse antibodies in dilution buffer (PBS+1% BSA+1% normal goat serum+0.01% Tween-20) and incubate for 1 hour at RT. The plates were then washed 3 times with 250 μl/well washing buffer. 100 μl/well of a solution of HRP conjugated goat anti-mouse Fc antibody (Abcam) in dilution buffer was then added to each well of the plate. After that the ELISA plates were allowed to incubate for 60 min at RT then plates were washed 3 times with 250 μl/well washing buffer. Finally, 100 μl/well of TMB was added to each well and the reaction was terminated using 0.64M H₂SO₄. The plates were read on a Thermo Multiscan FC at 450 nM (see FIG. 6F).

[6] = target: T4, human PD-L1 expressed on cells; assay: FACS, IFN-gamma stimulated HCC827 cells; remark: listed apart in the source
Protocol: Log phase IFN-γ stimulated (500U/ml for 2 days) HCC827 cells were collected and resuspended in blocking buffer (5% BSA+PBS). 2×10\hat{ }5 cells were added to each tube and then washed once with PBS (1500 rpm, 5 mins, RT). The 100 μl/tube serial diluted biotinylated PD-L1 antibodies with blocking buffer were added into corresponding tubes and incubate at 4° C. for 1 hr.

[7] = target: hPD-L1 (antigen of the Biacore assay) (human, UniProt Q9NZQ7 19-238, limits assumed); assay: SPR (Biacore), antibody captured on anti-human Fc, antigen in flow
Sequence of hPD-L1 (antigen of the Biacore assay) (Q9NZQ7 19-238 limits assumed): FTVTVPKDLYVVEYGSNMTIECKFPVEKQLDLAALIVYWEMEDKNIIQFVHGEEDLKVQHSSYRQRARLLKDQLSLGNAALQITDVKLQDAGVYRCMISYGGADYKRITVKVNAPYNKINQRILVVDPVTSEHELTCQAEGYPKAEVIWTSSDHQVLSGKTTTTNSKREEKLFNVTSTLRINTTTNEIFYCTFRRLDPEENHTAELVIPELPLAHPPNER
Protocol: A CM5 sensor chip was activated in each flow cell by 7-min injection (10 μl/min) of freshly prepared 1:1 50 mM N-hydroxysuccinimide (NHS): 200 mM 1-ethyl-3-(3-dimethylaminopropyl)-carbodiimide (EDC). Then anti-human Fc antibody (GE Healthcare) in a concentration of 10 μg/ml in 10 mM sodium acetate buffer PH 5.0 was injected onto the activated chip at 10 μl/min (HBS-EP running buffer: 10 mM HEPES, 150 mM NaCl, 3.4 mM EDTA, 0.005% surfactant P20, pH 7.4). The remaining active coupling sites were blocked by 7 min injection of 1M ethanolamine at 10 μl/min. The immobilization level of each flow cell is ˜9000RU. Antibodies were captured in FC2 by anti-human Fe IgG (GE Healthcare) to 200˜300RU. FC1 was used as the reference cell. Antigen was injected at varying concentrations after capture of antibody. The association time for antibody binding antigen is 180s. Surface Regeneration condition is 120s at 10 μl/min in Gly pH1.5. The signals with captured antibody subtracted from those without captured antibody were calculated with Biacore X100 evaluation software ver. 2.0 (Biacore).

[8] = target: T4, human PD-L1 expressed on cells; assay: blocking FACS on HCC827 cells; blocked ligand: biotinylated hPD-1-N297A
Protocol: Log phase IFN-γ stimulated (500U/ml for 2 days) HCC827 cells were collected and resuspended in blocking buffer (5% BSA+PBS). 2×10\hat{ }5 cells were added to each tube and then washed once with PBS (1500 rpm, 5 mins, RT). The 100 μl/tube serial diluted PD-L1 antibodies (see FIG. 8) with blocking buffer were added into corresponding tubes and incubate at 4° C. for 1 hr. […] After washing for three times with PBS, 100 μl/tube streptavidin-PE 1:200 (EBiosciences) in blocking buffer was added to each tube. The cells were incubated at 4° C. for 1 hr and then washed twice with PBS, followed by resuspending cells in 150 μl PBS for each sample. The cells were then transferred into FACS tube and the binding of the antibodies to the cells were detected with flow cytometry (ACEA Bioscience Novocyte).

[9] = target: T7, Human PD-L1/CD274 with C-Fc Tag (hPD-L1-Fc) (human, UniProt Q9NZQ7 19-238); assay: blocking ELISA on coated hPD-L1-Fc; blocked ligand: biotinylated hPD-1-N297A
T7 construct: range 19-238; ACRO Biosystem PD1-H5258, made in HEK293; also called human PD-L1-Fc; not shown: Fc fragment of human IgG1 at C-terminus
T7 sequence (Q9NZQ7 19-238 limits assumed): as above
Protocol: High-binding clear polystyrene 96 well plates (Nunc) were coated with 100 μl/well of coating solution consisting of 1 μg/ml hPD-L1-Fc overnight at 4° C. Then the plates were washed once on an automatic plate washer using washing buffer (PBS+0.1% Tween 20 (Sigma)). 200 μl of blocking buffer (PBS+1% BSA+1% normal goat serum+0.05% Tween-20) was added to each well and incubated 2 hours at room temp. […] The plates were then washed 3 times using the method described above. […] After the plates were washed 3 times, 100 μl/well of a solution of 1:5000 diluted HRP conjugated Neutravidin antibody (Pierce) in dilution buffer was then added to each well of the plate. After that the ELISA plates were allowed to incubate for 60 min at RT, then the plates were washed 3 times with 250 μl/well washing buffer. Finally, 100 μl/well of TMB was added to each well and the reaction was terminated using 0.64M H₂SO₄. The plates were read on a Thermo Multiscan FC at 450 nM (see FIG. 18A to 18D).

B1: 4B6 (antibody, V domains shown)
VH: EVQLQQSGPELVKPGASVKISCKASGYVFTDYYMNWVKQSHGKSLEWIGDINPNNGGTSYNHKFKGKATVTVDKSSRTAYMELLSLTSEDSAVYYCVKWGDGPFAYWGQGTLVTVSA
VL: DIVMTQSQKFMSTSVGDRVSITCKASQNVGAAVAWYQQKPGQSPKLLIYSASNRYTGVPDRFTGSGSGTDFTLTISNMQSEDLADYFCQQYSNYPTFGSGTKLGIK
notes: Mouse monoclonal purified from hybridoma; also called mouse monoclonal antibody 4B6
- binding result (hPD-L2-Fc): no binding (tested: 2 ug/ml)
- Mean OD450 [1]: 1.49 OD450
- OD450 nM of sample-1 [1]: 1.43 OD450
- OD450 nM of sample-2 [1]: 1.54 OD450
- % of binding of Ab to E58A mutant vs. that to WT PD-L1 [2]: 69.6%
- Mean OD450 [2]: 1.04 OD450
- OD450 nM of sample-1 [2]: 1.06 OD450
- OD450 nM of sample-2 [2]: 1.01 OD450
- EC50 (read off the curve) [3]: ~0.04 µg/mL
- EC50 (read off the curve) [4]: ~10 ng/mL
- binding result [5]: no binding (tested: 20 ug/ml)

B2: 4B6-H3L3 (antibody, V domains shown)
VH: QVQLVQSGAEVVKPGASVKISCKASGYVFTDYYMNWVKQAPGQGLEWIGDINPNNGGTSYNQKFQGRATVTVDKSTRTAYMELSRLRSDDTAVYYCVKWGDGPFAYWGQGTLVTVSS
VL: DIQMTQSQSSLSASVGDRVTITCQASQNVGAAVAWYQQKPGKAPKLLIYSASNRYTGVPSRFSGSGSGTDFTLTISSMQPEDIATYFCQQYSNYPTFGSGTKLGIK
notes: Humanized; also called humanized 4B6 H3L3
- EC50 (read off the curve) [6]: ~0.1 µg/mL
- Kd [7]: 6.36 nM
- koff [7]: 0.000927 s⁻¹
- kon [7]: 150000 M⁻¹ s⁻¹
- IC50 (read off the curve) [8]: ~0.1 µg/mL
- IC50 (read off the curve) [9]: ~0.06 µg/mL

B3: 23F11 (antibody, V domains shown)
VH: QVQLQQPGAELVKPGASVKLSCKASGYSFTTYWMHWVKQRPGQGLEWIGMIQPNSGGTKYNEKFKKKATLTVDKSSTTASMELSSLTSEDSAVYYCARGAGTVDYFDYWGQGSTLTVSS
VL: DIVLTHSPVSLAVSLGQRATISCRASESVDIYGNSFMHWYQQKPGQPPKLLIYRASNLESGIPARFSGSGSRTDFTLTINPVEADDVATYYCQQSTEDPYTFGGGTKLEIK
notes: also called mouse monoclonal antibody 23F11; clone 23F11
- binding result (hPD-L2-Fc): no binding (tested: 2 ug/ml)
- Mean OD450 [1]: 1.71 OD450
- OD450 nM of sample-1 [1]: 1.65 OD450
- OD450 nM of sample-2 [1]: 1.76 OD450
- % of binding of Ab to E58A mutant vs. that to WT PD-L1 [2]: 9.9%
- Mean OD450 [2]: 0.338 OD450
- OD450 nM of sample-1 [2]: 0.383 OD450
- OD450 nM of sample-2 [2]: 0.292 OD450
- EC50 (read off the curve) [3]: ~0.07 µg/mL
- EC50 (read off the curve) [4]: ~6 ng/mL
- binding result [5]: no binding (tested: 20 ug/ml)
